Laboratory results published in the DeepSol protein solubility set.

Test: soluble on expression in E. coli; label from the status in PepcDB or PDB records

| Sequence | soluble on expression in E. coli |
| --- | --- |
| MGSDKIHHHHHHMQYREFGRTGVKTSLLGFGAMRLPVIGEDHSNIDEEKAIEMIRYAIDHGVNYVDTAYPYHGGNSEKVVGKALKDGYREKVFLATKSPVWQVEKHEDFERILDEQLEKLQTDHVDMYLMHALNKERWEKIKNLRFSDFFEKAKAKGKIRFAGFSFHDSYPVFKEIVDGYDWDFCQIQLNYMDVNYQAGLRGLKYAGSKGLAVVIMEPLKGGKLARLPEKVMEILRKYNKNWSPVELSFRWIGHHPEVSTILSGMSTLEQVKQNIDIMSKITPGNLTDEDMKMIEEIRKTLESFAVINCTQCGYCMPCPNGVDIPGNFRLYNETVMFEDWEGGRRTYKWLESQKSAASFCVECGECLSKCPQKLDIPNLLKKVHRELAEVK | not soluble |
| DDLPYRFGLGKADITGEAAEVGMMGYSSLEQKTAGIHMRQWARAFVIEEAASGRRLVYVNTDLGMIFQAVHLKVLARLKAKYPGVYDENNVMLAATHTHSGPGGFSHYAMYNLSVLGFQEKTFNAIVDGIVRSIERAQARLQPGRLFYGSGELRNASRNRSLLSHLKNPDIAGYEDGIDPQMSVLSFVDANGELAGAISWFPVHSTSMTNANHLISPDNKGYASYHWEHDVSRKSGFVAAFAQTNAGNLSPNLNLKPGSGPFDNEFDNTREIGLRQFAKAYEIAGQAQEEVLGELDSRFRFVDFTRLPIRPEFTDGQPRQLCTAAIGTSLAAGSTEDGPGPLGLEEGNNPFLSALGGLLTGVPPQELVQCQAEKTILADTGNKKPYPWTPTVLPIQMFRIGQLELLGAPAEFTVMAGVRIRRAVQAASEAAGIRHVVFNGYANAYASYVTTREEYAAQEYEGGSTLYGPWTQAAYQQLFVDMAVALRERLPVETSAIAPDLSCCQMNFQTGVVADDPYIGKSFGDVLQQPRESYRIGDKVTVAFVTGHPKNDLRTEKTFLEVVNIGKDGKQTPVTVATDNDWDTQYRWERVGISASKATISWSIPPGTEPGHYYIRHYGNAKNFWTQKISEIGGSTRSFEVLGTTP | soluble |
| EPEEEQITVLENGSWLIDGDTPVNKLKYVLSVDSFPGEEQGYYLTIAGLIMYILQRIPKTGDHMEFNGLRYEVVDMDGIRIDKVMVTKVP | soluble |
| MLLSPEQFSRLSEYAAYSRRKLKDMLSDFQQDGKFYSYLSVDGQTINIDGFRAFLIDYFGADLPSDLVDQLFLSFSKPPIKERRTSLFEDAISTVRAKFSESLSGRMAGLNIAGGSGQQTDRSQSSEPQALVCIPEDDVMGPRVANNDSQEPRIPLKPLICTLSLLEADTPENKLDVVFHVYDSDGNGFLDKSEIDGIIEQMMNVARYQQWDTIELEQVIRQMMVDIDYDNDGIVSFDEWRRGGLTNIPLLVLLGFDTEMKEDGSHVWRLRHFTKPTYCNACCSILVGWGGKQGLSCSLCKYTVHERCVRSAATNCIRTYSSRQQDKLYHHWQDANATAKCVKCKATVGVFQGKGCRWCHNYVHHRCMSALAQECDLGALVHHILPPTHIFPAFLERKTSTSLKNHNFSSHSASLLQAVSPSNDCRPLLVLVNPKSGGKQGVKILQKFEYLLNPRQVYDLSKTGPEPGLQLFSTLKNCNILVCGGDGTIGWVLESMDKMTFPHGRPPVAVLPLGTGNDLARCLRWGGGYENENLHKILEQIEKSSLIDMDRWQIKIEITENKSARRASEKGDTPPYSIINNYFSIGVDASIAHRFHVMREKFPEKFNSRMRNKLWYFELGTSETLSSSCKNLHEQIDILCDGESIDLGQDASLEGIALLNIPSIYGGSNLWGRSRKSKGRMPGLFPMKNAEKMQLQTRVQDIGDGLIELVGLESAMQMGQIKAGVRGARRLSQCSTVVIQTHKSFPMQIDGEPWMQPPCIIQITHKNQAKMLVGEFRHILELSINFFLFTAAAPRKRSSWMLLKRQSTNDDN | not soluble |
| MAERPRTIGNALEYVPEAIKTEAICLAALEIQRYGTVLKYIPDALKTEAMCLAAVQKYGYALEYVPEALKTEAICLAAGYEELQYWPEALKTEAVCLAAVEKNSKLLEFVPEALKTEAVCLAAGYKELQYWPEALKTEAPYLAAVQKDGSMLATVPEALKTEAFCLAAVQKNVRAFEYVPEALKTEAVCLAAVEKNGKLLEFVPEALRTEAICLAALQKDSSLLQYIPEALKTEAFCLTAVQKDSSLLQYVPEAFKTEVICLAAVQKDSSLLQYIPEALKTEAFYLAAVRKDGYSLKYIPEALKTEAICLAAVQKNGYLLKYVPEALKTEAICLSAVKQEGSALAYVPEALKTEALCLAAVQKNSSLLQYVPDTFKTEAFEAKMRSVISSGSGSSGYGIELIKWKFLSKEQKEWLEKIPYYYDSSKALEIPAELFTEEFCLAVVLKNSDGSVLQYIPDAKKTEAVCLAAVHERYKNALRYIPDALKT | not soluble |
| MDGNAPEPRYWEKMRLVAEVLKAVEGPIYIATHVDPDGDAIGSSLGLYRALKALGKEAYWVADPPRFLRFLPKEEEYSDPVEKLPPGATLVALDSAEPSRVVGVPVEGFVINIDHHGTNPRFGHLHVVDPSKAATAQMVKDLIDLLGVEWTAEIATPVLTGILTDTGNFRFANTTPEVLRVAAELLGYGVKLAELTDRLQFRPPSYFRLMGQVLSTVAFHFGGLLVTAHLPEDAGAEEDSDDFVGLIRYVEGSVVSVFLRKREEGVKVSIRSRGGVSAQNIALKLGGGGHVPAAGATLKGLDLDQAYERVLEAVREELTRAGYL | soluble |
| MRQVDFSPFYRSTVGFDHLFNWFDSRTQPDDVSSYPPYNIERLSEDSYRISMAVAGFSQDEIDIETHCNQLIVRGERKPENDDEEREFLYRGIASRAFERRFHLADHVKVIGAELGDGLLHIQLKREMPAELKPKKIVVQASSSAVKNGNDHAVRKVSLENERTE | not soluble |
| SLSAAEADLAGKSWAPVFANKNANGDAFLVALFEKFPDSANFFADFKGKSVADIKASPKLRDHSSTIFTRLNEFVNNAANAGKMSAMLSQFAKEHVGFGVGSAQFENVRSMFPGFVASVAAPPAGADAAWTKLFGLIIDALKAAGK | soluble |
| MPEYKAPLRDMRFLIDEVFDFHGRYQALGASDATPDMVAAILDEGSKFCEQVLAPLNRSGDEEGCHFDNGVVTTPKGFKEAYAQYVEGGWNGVASDPAYGGQGLPHSLGLLLSEMIGASNVSWGMYPGLTRGAMSAIHAHGSQAQKDLYLARMTAGTWTGTMCLTEPHCGTDLGIIKTRAVPNADGSHAISGTKIFISAGEHDLSENIVHLVLAKLPDAPAGTKGISLFIVPKFLPDAEGNVGARNAVSCGSIEHKMGIKASATCVMNFDGATGYLIGEPNKGLHCMFTMMNHARLGTGMQGLCLGETSYQGAVRYARERLQMRSLTGPKAPDKPADPIIVHPDVRRMLLTMKAFNEGNRALAYFTAQLLDTEHLSQDAAERERAADLLAFLTPICKAFMTETGQEVTNLGMQVYGGHGYIREWGMEQLVRDCRIAQIYEGTNGIQALDLLGRKVLGSQGKLLRGFTKLVHQLCQAQAEHPQLKGQVAQLAALNAQWGELTQQVGLAAMKNADEVGAASVDYLMFSGYVTLAYFWLRIALVAREKLDAGSGEAAFYEAKLATADFYFSR | not soluble |
| MKRKPAVAGYFYPERKDELYSLLSSFAIPEQHVSGTIIGAVVPHAGIIYSGRTAMYSYRAIEKSAVRDFVIIGPNHRPLTPYASLYPEGEWSTPLGDALINDRMAEALYRDSNYIVKDEESHLMEHSVEVQIPFLQYLFGDGFRFVPVILGDQEIDVARDIGEAIMKIEDPFIFIASSDFTHYEDAKRVEKKDMDLISAILTLDLDKFYSVLEKENVTACGYGAIAALMYYTKKRGGRMIFLNHSNSGDVTGDYSEVVGYASLVSVIPLEHHHHHH | soluble |
| MGSDKIHHHHHHMERMKAFLTDENFKHEINFDNDLLPYKIYQTTIANGYPDALFHWHPELEISYIYEGTAQYHIDYDYFNSQTDDIILVRPNGMHSIHPIKNKMQKAQTLLFHLDLVGYSLLDQISLRYLQPLQNSTFKLVPCIKPDMLGYQDIKNCLFAIFDIYQRQGRHFELLLKAKLQELIYLLYFHQYVLRKHSDDMYRKNEKIRELIDYIHQHYQEKLFIISLADIIGYSKTHFMTVFKQHTGTSCTDFIIQFRLSKACDLLVNSIKPILEVASEVGFTNLSNFNRQFKRYYQITPSQYRKQFKKTQK | not soluble |
| MHVLDLFKIEGKTAIVTGGGRGLGEQIAVGLAEAGANVVVCSRKVEACEQVKEKLEQLGVRSLALRCDVTNPEEVKHVVETTVKEFGGIDILVNNSGATWGAPVEEMPLEAWQKVINVNVTGTFLMSQAVGKVMIAKQTGGSIINIASVAGLGGTHPDILNTIGYNTSKGAVITFTRDLAAKWGKHGIRVNAVAPGFFPTKMSKVVLERVGKKVLEHTPLGRFGGEDDLKGAVLFLASPASAFVTGALLVVDGGSHATGI | soluble |
| MGSDKIHHHHHHMNGLFVLAYAITNLHPGAGRGYGIVDMPVQRDQMGYPIIYSSAFKGPLKALCAGDAINDHGRIDCKKKGECCCLFGSEPEEEESSKGMLNVMDLPLFSVPAPTFDGFVQVTTNYLIDRARNIFEAISHINGYLGSLGNEIKALLDAQGNKSVEVYDTEAKVVNFDPSSFKLLSSLPLFNNRLAISDDKRVIDKSLIIYTRNRLNLLTKVVEEGGLWSEEYIPMGSIFIGGMIIDNVRNKFCDELSKISCDSRLFLHHFSRIFNADKISEDVYLFYLNIGGKESIGKGLMKVFIGV | not soluble |
| MEKPGHETDIAGSRRTHLKKSFKSTLRHLLTACSKQVVVNLHQTIEEEFDEQCHETQVGPILDTVEELVEEQSLDPLFSDKTDVMAIAYDLTTSKKNEIQKLTVLLQRAEEQNRQKEARISMLKKQTQDLSGTADRIEKLNAGVSGYFEGKDKLPPI | soluble |
| MGSDKIHHHHHHMNFKQLNYFLVVAEEGQITSAAKRLFVGQPALSYQLKQLEEELGAKLFIRQPYGIELTEAGKKLRDYAGQILTLAQNVQTEITELDRGGWGRVKLGSVSSSIGELPSAKLTAFARQHPGVSFDIYEDNTFGILDKLQGNLLDLAIVRTPYNRVNLNFVDISDEPMTAVTCQDFFPGKGKVGLQDLAGQPLVIYRRFEDMFKEAFAEKGLTPNFVVKCDDSRTAIRWSDSGLGIALVPESIAKTYARGHIYPIDLAKWRTRLQLVWRKDRVVTPLMRQIIALYAK | not soluble |
| GSQQGKFDTKGIESTDEAKMSFLVTLNNVEVCSENISTLKKTLESDCTKLFSQGIGGEQAQAKFDSCLSDLAAVSNKFRDLLQEGLTELNSTAIKPQVQPWINSFFSVSHNIEEEEFNDYEANDPWVQQFILNLEQQMAEFKASLSPVIYDSLTGLMTSLVAVELEKVVLKSTFNRLGGLQFDKELRSLIAYLTTVTTWTIRDKFARLSQMATILNLERVTEILDYWGPNSGPLTWRLTPAEVRQVLALRIDFRSEDIKRLRL | soluble |
| MASIKEELISAAESESQVMQIVQAALEGIDMDALTSMTPGLPQTVRQTAINSLLSSKKLAIQQAPGGVLRLKVNTSEQIAGTEEEQVIYSLIEESKTRGIWIKELREGSGLNQLQLRKTLKSLETKKLIKTIKAVGTTRKCYILFSIEPDMSLTGGTFYSDQQLDSELINTLISVCGSYAASRRKHAIDENPNNIQMQREASYIRPQEIAQFITEKRVLNVPLSLEDLERILEVAVLDGTIERRADGKIRACPPRSSISPLVSVPCAICPVVEDCRPGYVISPQSCDYMKNWLADL | not soluble |
| MSLGNSFRQGANAYFDYVNTQGGIYGRALELLTYDDKYEPKLTESNVRHLIDKEGVFALMGTIGTPTAMAAIPVALEEQIPFLMPLSGARFLREPFNRLIFNLRPSYFEEIEAISSYLTEERGFKRIAIFYQNDSFGIEGLEGLTQSLDKRGLKIVAEGIYPRNTLSVSDAVYAIHPKSPEAIVMVGTYEASALFIQRYKELNPASPPLFVNISFVAATALAEALQGNMRQVLVSNVTPSPWDISNPLVREYHRLYVESMGHPPCFLSFEGFLSAKIIVEALHKTGPILSHKRFIKAMENLSPDFLSDLKLRFSATNHQAFEQVFITGYENGRFVTLKSYEGHHHHHH | not soluble |
